In the assay the target is Amuc1033^6S-GlcNAc (Akkermansia muciniphila) (UniProt B2UQX4). Description: SEC-MALS. On the technique in general: In gel filtration, larger molecules generally elute earlier.

The values below come from article doi:10.1101/2025.09.11.675649.

One may read the stoichiometry N as the number of molecules, sites or subunits per partner or assembly.

“Amuc1033^6S-GlcNAc (from UniProt B2UQX4 1-581) (enzyme)” came in with a stoichiometry N of 2.
